Measurements taken from patent CN117255804A (GENSCRIPT NANJING CO LTD, dated 2023).
Positions count from the first letter of the chain named.

B1: 382A3E3-VH1-VL3 (antibody, IgG4, V domains shown)
VH: EVQLVESGGGLVQPGGSLRLSCAASGFTFSDYGMSWVRQAPGKGLEWVSFISNVAYGIFYADTVTGRFTISRDNAKNSLYLQMNSLRAEDTAVYYCARDELGRFDYWGQGTLVTVSS
VL: DIQMTQSPSSLSASVGDRVTITCHVSQNINIWLSWYQQKPGKAPKLLIYKASNLHTGVPSRFSGSGSGTDFTLTISSLQPEDFATYYCQQGQTFPRTFGGGTKVEIK
notes: Humanized mAb; Only VH and VL are tied to it
B2: 379E7A6-VH1-VL2 (antibody, IgG4, V domains shown)
VH: B1 VH with V5L, S35A, G57S, I58K, A61V, A75S, S78T, D105P
VL: B1 VL with S10T, Q27H, S34N, D70E, E81D
notes: as for B1
B3: 382A3E3-VH1-VL5 (antibody, IgG4, V domains shown)
VH: B1 VH
VL: B1 VL with M4L, S10F, D70E
notes: as for B1
B4: 382A3E3-VH1-VL2 (antibody, V domains shown)
VH: B1 VH
VL: B1 VL with S10T, D70E, E81D
notes: Humanized mAb expressed in CHO-3E7
B5: 382A3E3-VH2-VL5 (antibody, IgG4, V domains shown)
VH: B1 VH with E1Q, L11V, S49A, A75S, S78T, R98K
VL: B1 VL with M4L, S10F, D70E
notes: as for B1
B6: 382A3E3-VH1-VL4 (antibody, IgG4, V domains shown)
VH: B1 VH
VL: B1 VL with A43V, F83V, G100Q
notes: as for B1
B7: 379E7A6-VH1-VL1 (antibody, IgG4, V domains shown)
VH: B1 VH with V5L, S35A, G57S, I58K, A61V, A75S, S78T, D105P
VL: B1 VL with Q27H, S34N, L73F, F83I
notes: as for B1
B8: 367C3A3-VH1-VL2 (antibody, IgG4, V domains shown)
VH: QVQLVQSGSELKKPGASVKVSCKASGYTFTDYSMHWVRQAPGQGLEWMGWINTETGEPTYADDFKGRFVFSLDTSVSTAYLQISSLKAEDTAVYYCARYDYAMDYWGQGTLVTVSS
VL: DIQMTQSPSTLSASVGDRVTITCKASQDVSSAVAWYQQKSGKAPKLLIYWASIRHTGVPSRFSGSGSGTEFTLTISSLQPDDFATYYCQQRYTTPPTFGGGTKVEIK
notes: as for B1
B9: 367C3A3-VH2-VL1 (antibody, IgG4, V domains shown)
VH: QVQLVQSGAEVKKPGASVKVSCKASGYTFTDYSMHWVRQAPGQRLEWMGWINTETGEPTYADDFKGRVTITRDTSASTAYMELSSLRSEDTAVYYCARYDYAMDYWGQGTLVTVSS
VL: B8 VL with T10S, S40P, E70D, D81E
notes: as for B1
B10: 367C3A3-VH2-VL2 (antibody, IgG4, V domains shown)
VH: B9 VH
VL: B8 VL
notes: as for B1

Molecular target: T1, 人4-1BB (human, UniProt Q07011 24-255)
T1 construct: whole, on cells; also called TNFRSF9; CD137
Experiment: FACS on HEK293 cells expressing human 4-1BB, 1.0 ug/ml

T1 sequence (Q07011 24-255): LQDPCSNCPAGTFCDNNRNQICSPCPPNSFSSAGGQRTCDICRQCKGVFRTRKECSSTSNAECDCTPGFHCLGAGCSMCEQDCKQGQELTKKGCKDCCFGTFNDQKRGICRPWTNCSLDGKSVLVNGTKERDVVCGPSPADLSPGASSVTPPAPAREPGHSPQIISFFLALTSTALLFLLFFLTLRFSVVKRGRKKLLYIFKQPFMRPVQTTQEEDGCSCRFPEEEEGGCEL

Binding result, binds:
B1
B2
B3
B4
B5
B6
B7
B8
B9
B10
